This is an account of results in publication PMC2861366.

Holding throughout (assay): ITC
The target in experiment [1] is SSB tetramer-(dT)70 1:1 complex (fully wrapped (SSB)65-like) (UniProt P0AGE0).
Experiment [2] concerns the target P15, SSB C-terminal 15-mer peptide (UniProt P0AGE0).
In experiment [3] the target is P9, SSB C-terminal 9-mer peptide (UniProt P0AGE0).
Experiment [4] deals with SSB tetramer-(dT)70 1:1 complex (fully wrapped (SSB)65-like) (UniProt P0AGE0). The settings on record: pH 8.1, 25 °C, 20 mM NaCl, buffer H: 10 mM Hepes.
Experiment [5] deals with SSB (single-stranded DNA binding protein), full length (UniProt P0AGE0). To be noted: pH 7.0, 25 °C, 0.2 M NaCl, buffer C: 10 mM cacodylate.
Where [6] appears, read: pH 7.0, 25 °C, 0.2 M NaCl, buffer C: 10 mM cacodylate.
[7] abbreviates: pH 7.5, 25 °C, 0.2 M NaCl, buffer T: 10 mM Tris.
The mark [8] stands for this setting: pH 7.0, 25 °C, 20 mM NaCl, buffer C: 10 mM cacodylate, pH 7.0.
Where [9] appears, read: pH 7.0, 25 °C, 200 mM NaCl, buffer C: 10 mM cacodylate, pH 7.0.
[10] abbreviates: pH 7.5, 25 °C, 20 mM NaCl, buffer T: 10 mM Tris, pH 7.5.
The mark [11] stands for this setting: pH 7.5, 25 °C, 20 mM NaCl, buffer T: 10 mM Tris.

P9, SSB C-terminal 9-mer peptide, sequence (P0AGE0 whole entry, looked up, tested part not stated): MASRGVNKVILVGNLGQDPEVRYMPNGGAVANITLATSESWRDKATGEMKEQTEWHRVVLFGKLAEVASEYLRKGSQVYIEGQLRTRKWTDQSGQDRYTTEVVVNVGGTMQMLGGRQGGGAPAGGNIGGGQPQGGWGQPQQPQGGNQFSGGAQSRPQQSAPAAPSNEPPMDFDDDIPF
SSB tetramer-(dT)70 1:1 complex (fully wrapped (SSB)65-like), sequence (P0AGE0 whole entry, one chain of several): as the sequence (P0AGE0 whole entry, looked up, tested part not stated) above
SSB (single-stranded DNA binding protein), full length, sequence (P0AGE0 whole entry): as the sequence (P0AGE0 whole entry, looked up, tested part not stated) above

Turning to PriA helicase (primosomal protein N'), the Kobs entry in experiment [1] (setting [6]) is reported as “(3.7±0.5)×10^6 M^−1”; in experiment [1] (setting [7]), “(1.9±0.5)×10^6 M^−1”. For the same substance, the ΔHobs in experiment [1] (setting [6]) was -76.6 kJ/mol; in experiment [1] (setting [7]), -36 kJ/mol. The protons absorbed on complex formation in experiment [2] (pH 7.0-7.5, 25 °C, 20 mM NaCl, buffer T: 10 mM Tris, pH 7.5) came out at 1 protons. Also, the K (observed association constant) in experiment [2] (setting [8]) was 2.7e+06 M⁻¹; in experiment [2] (setting [9]) it was 360000 M⁻¹; in experiment [2] (setting [10]), 1.6e+06 M⁻¹; in experiment [3] (setting [9]), 180000 M⁻¹; in experiment [3] (setting [10]) it was 2e+06 M⁻¹. Further, the results for the ΔH (observed) in experiment [2] (setting [8]), in experiment [2] (setting [10]) and in experiment [3] (setting [10]) were -86.6 kJ/mol, -29.3 kJ/mol and -28 kJ/mol, respectively.

In the case of “χ (chi) subunit of DNA polymerase III holoenzyme (HolC)”, the Kobs result in experiment [4] was “(3.8±0.4)×10^6 M^−1”; in experiment [1] (setting [6]) it was “(5.4±1.0)×10^5 M^−1”; in experiment [1] (setting [8]), “(7.6±1.6)×10^6 M^−1”; in experiment [1] (pH 8.1, 25 °C, 20 mM NaCl, buffer H: 10 mM Hepes), “(5.5±0.8)×10^6 M^−1”; in experiment [5] it was “(3.0±0.7)×10^5 M^−1”. Further, the ΔHobs is -36.4 kJ/mol in experiment [1] (setting [8]) and -37.2 kJ/mol in experiment [1] (pH 8.1, 25 °C, 20 mM NaCl, buffer H: 10 mM Hepes, pH 8.1). Further, the K (observed association constant) was found to be 1.5e+06 M⁻¹ in experiment [2] (setting [8]), 800000 M⁻¹ in experiment [2] (setting [10]), 1.6e+06 M⁻¹ in experiment [3] (setting [8]) and 800000 M⁻¹ in experiment [3] (setting [10]). Also, the ΔH (observed) is -39.7 kJ/mol in experiment [2] (setting [8]), -32.2 kJ/mol in experiment [2] (setting [11]), -33.1 kJ/mol in experiment [3] (setting [8]) and -34.3 kJ/mol in experiment [3] (setting [11]).
